Patent US20170369592A1, “NOVEL ANTI-FIBROBLAST ACTIVATION PROTEIN (FAP) ANTIBODIES AND USES DERIVED THEREOF” (Mabimmune Diagnostics AG, priority 2015, published 2017)

Assays:
[1] = tested on: tumor growth in NSCLC and MCRC; conditions: mouse models; cited from earlier work
[2] = cyclization; cited from earlier work
[3] = pH 7.8; cited from earlier work
[4] = biological target: directly coated FAP peptides mixture (cFAP); test: Direct ELISA, mixture of FAP-specific peptides directly coated; type: binding, human; conditions: non-linear regression
Protocol: ELISA assays were performed with varying antibody concentrations to validate the binding of the exemplary antibodies of the present invention to FAP and to be able to determine their half maximal effective concentration (EC50). For the exemplary recombinant human NI-206.82C2, NI-206.59B4, NI-206.22F7, NI-206.27E8, NI-206.12G4 and NI-206.17A6 antibodies, 96-well microplates (Costar, Corning, USA) were coated with FAP, with a mixture of the 3 peptides or with BSA (Sigma-Aldrich, Buchs, Switzerland) diluted to a concentration of 5 μg/ml in carbonate ELISA coating buffer (15 mM Na2CO3, 35 mM NaHCO3, pH 9.4) for the direct ELISA. For the capture ELISA, the microplates were coated with mouse anti-His monoclonal antibody (Clontech) diluted to a concentration of 3 μg/ml in PBS, the plates were then blocked, FAP or BSA were diluted to a concentration of 2 μg/ml in PBS and added to the plates to be captured. The binding efficiency of the antibodies was then tested. The exemplary NI-206.82C2 antibody specifically and strongly binds to the captured FAP and less efficiently to the directly coated FAP. The exemplary NI-206.59B4 antibody specifically, strongly and similarly binds to the captured FAP and to the directly coated FAP.
The EC50 values were estimated by a non-linear regression using GraphPad Prism (San Diego, USA) software. […] The binding of NI-206.12G4 towards sFAP was not tested.

[5] = biological target: T1, recombinant human Fibroblast Activation Protein (FAP) (human, UniProt Q12884 26-760); test: ELISA, tagged rhFAP captured on the plate with an anti-tag antibody, HRP-labelled NI-206.82C2, TMB, OD 450 nm; axis unit as printed (pM) [continued) B]
T1 construct: Bought recombinant his-tagged protein; Captured (sFAP) and directly coated (FAP) are two assay formats of this one molecule; also called rFAP; rhuFAP; not shown: N-terminus 6x histidine tag
T1 sequence (looked up): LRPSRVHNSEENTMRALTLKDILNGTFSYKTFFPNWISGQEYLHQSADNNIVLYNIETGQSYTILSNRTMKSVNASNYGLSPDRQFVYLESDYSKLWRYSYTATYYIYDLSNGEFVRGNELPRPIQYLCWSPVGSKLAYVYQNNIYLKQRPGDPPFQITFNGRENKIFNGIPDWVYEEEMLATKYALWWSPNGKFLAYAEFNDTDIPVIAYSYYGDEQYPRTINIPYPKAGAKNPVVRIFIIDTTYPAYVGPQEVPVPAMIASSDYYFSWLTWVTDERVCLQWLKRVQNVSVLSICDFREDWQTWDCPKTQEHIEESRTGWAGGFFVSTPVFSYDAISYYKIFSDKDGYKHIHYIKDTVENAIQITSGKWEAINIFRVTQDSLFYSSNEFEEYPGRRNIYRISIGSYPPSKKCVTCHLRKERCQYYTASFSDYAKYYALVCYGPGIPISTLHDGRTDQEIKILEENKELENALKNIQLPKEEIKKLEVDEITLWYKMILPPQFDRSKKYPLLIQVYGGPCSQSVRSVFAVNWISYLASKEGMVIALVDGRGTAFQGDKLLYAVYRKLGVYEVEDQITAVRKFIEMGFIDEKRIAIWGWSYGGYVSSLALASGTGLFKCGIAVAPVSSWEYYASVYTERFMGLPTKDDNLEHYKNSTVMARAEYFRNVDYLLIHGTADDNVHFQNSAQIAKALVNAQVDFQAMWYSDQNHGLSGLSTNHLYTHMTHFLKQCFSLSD
Excerpt: Active recombinant human enzymes evaluated in this assay include: Fibroblast Activation Protein (FAP; Sino Biologicals, 10464-H07H), Dipeptidyl Peptidase IV (DPPIV, BPS Bioscience 80040), Dipeptidyl Peptidase 8 (DPP8, BPS Bioscience 80080), Dipeptidyl Peptidase 9 (DPP9, BPS Bioscience 80080), and Prolyl Oligopeptidase/Prolyl Endopeptidase (POP/PREP, BPS Bioscience 80105). Each recombinant peptidase was expressed with a purification tag, and attached to the 96 well ELISA plate using either a mouse anti-Histidine antibody (CloneTech), or a mouse anti-Glutathione S-transferase (GST, Sino Biologicals, 111213-MM02) tag antibody. […] H-Gly-Pro-AMC (ATT Bioquest, 13450) was used to validate the presence and activity of DPP4, DPP9, and DPP8. Z-Gly-Pro-AMC (BaChem, 11145) was used to evaluate the activity of FAP and POP/PREP. […] Following a washing step, bound antibody was detected using 3,3′,5,5′-Tetramethylbenzidine (TMB) substrate.

[6] = biological target: T1, recombinant human Fibroblast Activation …; test: cell-based or functional assay
[7] = biological target: T2, recombinant human Dipeptidyl Peptidase IV (DPPIV) (human, UniProt P27487 29-766, limits assumed); test: ELISA, recombinant human CD26 on the plate, NI-206.82C2 detected with HRP goat anti-human antibody, OD450
T2 construct: Bought; also called rhDPPIV; DPP4

[8] = biological target: T3, active recombinant murine FAP (mouse, UniProt P97321 26-761); test: cell-based or functional assay
T3 sequence (looked up): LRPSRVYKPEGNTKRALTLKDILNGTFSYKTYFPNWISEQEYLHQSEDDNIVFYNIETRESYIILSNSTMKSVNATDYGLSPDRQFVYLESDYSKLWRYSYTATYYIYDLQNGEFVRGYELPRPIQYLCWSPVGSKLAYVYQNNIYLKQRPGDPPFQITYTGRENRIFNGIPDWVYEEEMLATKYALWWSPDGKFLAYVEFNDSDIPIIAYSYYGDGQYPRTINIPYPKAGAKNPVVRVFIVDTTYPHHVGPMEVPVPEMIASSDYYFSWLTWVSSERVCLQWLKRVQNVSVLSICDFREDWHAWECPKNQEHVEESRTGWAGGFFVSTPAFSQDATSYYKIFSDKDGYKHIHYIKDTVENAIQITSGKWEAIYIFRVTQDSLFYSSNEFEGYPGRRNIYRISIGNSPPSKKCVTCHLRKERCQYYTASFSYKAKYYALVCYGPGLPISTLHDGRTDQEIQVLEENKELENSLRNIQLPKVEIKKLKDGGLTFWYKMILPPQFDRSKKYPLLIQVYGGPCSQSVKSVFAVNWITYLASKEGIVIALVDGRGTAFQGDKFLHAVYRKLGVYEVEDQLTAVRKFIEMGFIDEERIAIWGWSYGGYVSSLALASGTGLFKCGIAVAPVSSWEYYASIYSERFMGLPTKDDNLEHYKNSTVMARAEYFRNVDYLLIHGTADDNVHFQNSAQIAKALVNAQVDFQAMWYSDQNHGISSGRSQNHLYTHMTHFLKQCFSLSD

[9] = biological target: T1, recombinant human Fibroblast Activation …; test: cell-based or functional assay; remark: listed apart in the source

T2 sequence (P27487 29-766 limits assumed): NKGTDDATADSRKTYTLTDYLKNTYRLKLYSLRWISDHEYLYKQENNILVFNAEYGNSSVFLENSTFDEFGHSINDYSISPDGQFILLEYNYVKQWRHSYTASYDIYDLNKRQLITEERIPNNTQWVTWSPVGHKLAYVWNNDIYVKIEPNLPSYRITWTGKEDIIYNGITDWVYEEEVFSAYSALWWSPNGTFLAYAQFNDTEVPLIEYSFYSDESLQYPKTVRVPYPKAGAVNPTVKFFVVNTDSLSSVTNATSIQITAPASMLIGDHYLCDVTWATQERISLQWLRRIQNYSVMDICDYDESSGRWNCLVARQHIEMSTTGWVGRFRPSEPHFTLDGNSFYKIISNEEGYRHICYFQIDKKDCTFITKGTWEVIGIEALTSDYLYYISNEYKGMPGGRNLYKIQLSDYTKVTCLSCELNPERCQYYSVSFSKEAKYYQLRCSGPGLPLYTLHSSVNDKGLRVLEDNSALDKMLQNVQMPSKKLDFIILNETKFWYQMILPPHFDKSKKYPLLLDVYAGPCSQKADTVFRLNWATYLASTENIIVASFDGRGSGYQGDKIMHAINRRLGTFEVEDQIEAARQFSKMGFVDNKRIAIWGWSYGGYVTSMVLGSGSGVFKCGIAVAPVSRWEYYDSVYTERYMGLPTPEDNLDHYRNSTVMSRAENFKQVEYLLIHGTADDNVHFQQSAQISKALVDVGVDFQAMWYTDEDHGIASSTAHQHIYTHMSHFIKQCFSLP

In the case of `N[C@@H](CCC(=O)O)C(=O)N1CCC[C@H]1B(O)O` [PT-630], the tumor growth [1] is given as “abrogate tumor growth” and the in-vivo stability [2] is given as “poor in-vivo stability”.

In the case of `CC(C)[C@H](N)C(=O)N1CCC[C@H]1B(O)O` [Talabostat, Val-boroPro], the “stability of inhibitory activity in aqueous media” value [3] is listed as “rapidly loses inhibitory activity”.

B1: NI-206.17A6: recombinant human-derived monoclonal anti-FAP antibody, variable regions in FIG. 1 (antibody, V domains shown)
VH: QVQLQESGPGLVRSTETLSLTCLVSGDSINSHYWSWLRQSPGRGLEWIGYIYYTGPTNYNPSLKSRVSISLGTSKDQFSLKLSSVTAADTARYYCARNKVFWRGSDFYYYMDVWGKGTTVTVSS
VL: EIVLTQSPGTLSLSLGERATLSCRASQSLANNYLAWYQQKPGQAPRLLMYDASTRATGIPDRFSGSGSGTDFTLTISRLEPEDFAVYYCQQFVTSHHMYIFGQGTKVEIK
For B1, the “EC50, binding to directly coated FAP peptides mixture (cFAP)” value (“EC50, binding” below) [4] was “did not show any binding”.

B2: NI-206.82C2 (antibody, V domains shown)
VH: QVQLQQSGPGLVKPSQTLSLTCAISGDSVSSNSVTWNWIRQSPSRGLEWLGRTYYRSKWYNDYAVSVKGRITINPDTSKNQFYLQLKSVTPEDAAVYYCARDSSILYGDYWGQGTLVTVSS
VL: QAVLTQPSSLSASPGASASLTCTLPSGINVGTYRIFWFQQKPGSPPQYLLSYKSDSDNHQGSGVPSRFSGSKDASANAGILLISGLQSEDEADYYCMIWHSSAWVFGGGTKLTVL
notes: Labelled with HRP or Cy5 in some assays; also called HRP-labelled 82C2
In the case of B2, the “EC50 (read off the curve)” value [5] is reported as 0.04 to 0.05 nM, the “IC50, inhibition of rhFAP gelatinase activity (DQ-gelatin cleavage)” value [6] is reported as 7.7 nM and the binding result [7] is reported as “no binding (tested: 20 nM)”. The “IC50 (read off the curve) [continued) B]” value [8] was roughly 60 nM and the “IC50 (read off the curve)” value [9] was roughly 10 nM.

B3: NI-206.27E8: recombinant human-derived monoclonal anti-FAP antibody, variable regions in FIG. 1 (antibody, V domains shown)
VH: EVQLVESGGGLVEPGGSLRLSCAASGFTFSDAWMNWVRQAPGKGLEWVGRIKTKSDGGTTDYAAPVRGRFSISRDDSKNTLFLEMNSLKTEDTAIYYCFITVIVVSSESPLDHWGQGTLVTVSS
VL: SYELTQPPSVSVSPGQTARITCSGDELPKQYAYWYQQKPGQAPVLVIYKDRQRPSGIPERFSGSSSGTTVTLTISGVQAEDEADYYCQSAYSINTYVIFGGGTKLTVL
With B3 the “EC50, binding” value [4] was “did not show any binding”.

B4: NI-206.12G4: recombinant human-derived monoclonal anti-FAP antibody, variable regions in FIG. 1 (antibody, V domains shown)
VH: EVQLVESGGGLVKPGGSLRLSCAASGFTFSDYYMSWIRQAPGKGLEWISYISSGSSYTNYADSVKGRFTISRDNAKKSVYLEVNGLTVEDTAVYYCARVRYGDREMATIGGFDFWGQGTLVTVSS
VL: SYELTQPPSVSVSPGQTARITCSGDALPKQYAYWYQQSPGQAPVLVIYKDSERPSGIPERFSGSSSGTTVTLTISGVQAEDEADYYCQSADSGGTSRIFGGGTKLTVL
For B4, the “EC50, binding” value [4] was “did not show any binding”.

B5: NI-206.59B4: recombinant human-derived monoclonal anti-FAP antibody, variable regions in FIG. 1 (antibody, V domains shown)
VH: QVQLVQSGAEVKKPGASVKVSCKTSGYTFTDYYIHWVRQAPGQGLEWMGWINPNRGGTNYAQKFQGRVTMTRDTSIATAYMELSRLRSDDTAVYYCATASLKIAAVGTFDCWGQGTLVTVSS
VL: SYELTQPPSVSVSPGQTARITCSGDALSKQYAFWFQQKPGQAPILVIYQDTKRPSGIPGRFSGSSSGTTVTLTISGAQADDEADYYCQSADSSGTYVFGTGTKVTVL
With B5 the “EC50, binding” value [4] was “did not show any binding”.
